Laboratory results from patent US20130177570A1 (PURDUE RESEARCH FOUNDATION, published 2013).

B1: m909 Fab (Fab, V domains shown)
VH: EVQLVQSGAEVKKPGASVKVSCKASGYTFTSYAMHWVRQAPGQRLEWMGWINAGNGNTKYSQKFQGRVTITRDTSASTAYMELSSLRSEDTAVYYCARDISYGSFDYWGQGTLVTVSS
VL: SSELTQDPAVSVALGQTVRITCQGDSLRSNYANWYQQKPGQAPVLVIYGQNNRPSGIPDRFSGSSSGNTASLTITGAQAADEADYYCDSRVSTGNHVVFGGGTKLTVLG
notes: Soluble Fab expressed in E. coli HB2151; The phagemid adds His6 and FLAG tags at the C-terminus of the Fab
B2: m923 (Fab, V domains shown)
VH: B1 VH
VL: SSELTQDPAVSVALGQTVRITCQGDNLRSYYASWYRQKSGQAPVLVIYGKNNRPSGIPDRFSGSSSGNTASLTITAAQAEDEADYYCHSRKSRGNHLLFGGGTKLTVLG
notes: Clone from the Fab phage library after light chain shuffling; also called clone m923

Tests used:
[1] = molecular target: T1, recombinant human folate receptor beta (FRβ), residues 22 to 236 (human, UniProt P14207 22-236); test: ELISA, recombinant FRβ coated, Fab detected with anti-FLAG-HRP
T1 construct: Produced in SF9 insect cells with baculovirus, then purified by nickel column and gel filtration; also called recombinant FRβ; FRβ protein
Protocol: To characterize the m909 antibody, an ELISA was performed as follows. FRβ, diluted in PBS, was coated on half of the wells of a 96 well plate at 50 ng/well overnight at 4° C. Wells were blocked with 100 μl of 4% milk/PBS (MPBS) for 1 hr at 37° C. For Fab binding kinetics, Fab was titrated from 3000 nM to 0.038 nM (1:5 serial dilutions) then 50 μl of diluted Fab was added to duplicate wells. After 2 hr incubation at 37° C., the wells were washed four times with PBST (PBS+0.05% Tween 20). Bound Fab was detected by incubating with anti-FLAG-horseradish peroxidase (HRP) mAb (1:1000) (Sigma) for 1 hr at 37° C. Wells were washed again with PBST. The HRP substrate 2,2′-azino-bis(3-ethylbenzthiazoline-6-sulphonic acid) (ABTS) was added (50 μl/well), and the absorbance at 405 nm was determined. For ELISA with IgG, a goat anti-human Fc IgG conjugated with HRP was used at 1:1000. FIG. 3 is a graph depicting the binding of m909 IgG₁ to FRβ.

[2] = molecular target: T1, recombinant human folate receptor beta …; test: phage display panning and screening on coated FRβ protein
Protocol: Purified FRβ was used for panning of a human naïve (not deliberately immunized) Fab phage library. Briefly, 2 μg of FRβ was coated on a Maxisorp plate, which was then incubated with library phage (˜10¹² pfu) for 2 hr. After extensively washing the wells with PBS+0.05% Tween 20 (PBST), phage were rescued by incubating with exponentially growing TG1 bacteria and helper phage. The panning procedure was repeated three more times with more stringent conditions in the latter two rounds, including decreased amounts of FRβ protein and additional washes with PBST. Three hundred colonies were picked from the last two rounds of panning and rescued with helper phage.

T1 sequence (P14207 other isoform, or with tags, fused parts or gaps): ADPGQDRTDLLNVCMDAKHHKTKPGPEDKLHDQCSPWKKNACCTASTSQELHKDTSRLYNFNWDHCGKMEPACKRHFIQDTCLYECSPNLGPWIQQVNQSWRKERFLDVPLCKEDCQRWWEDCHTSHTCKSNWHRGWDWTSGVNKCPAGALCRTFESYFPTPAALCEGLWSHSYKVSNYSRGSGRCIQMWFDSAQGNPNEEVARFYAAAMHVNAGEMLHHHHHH

Row | Binder | EC50 [1] | binding result [2]
1 | B1 | 20 nM | 
2 | B2 |  | binds
